# B1: LINE1-full (parent)
# chain: UACGUAGGUGGUUUUCCCCUGAUAGUGCUAAGGGGGCCUGGAAGUUUGGACUGGGCAGAGCUCAACACAGCGUGGCAAAGUGGCUGUGGCUAGACUGCCUCUCUGGAUUCCUCGUCACUCAGCAGGGCAUCUCUGAGAGAAAUGCC
# Variants of: B1
# Assay: self-cleavage, relative activity (ratio to wild type); higher = more cleavage; in vitro, sequencing; the parent is a self-cleaving ribozyme
row,Variant,self-cleavage
1,A67G G86A,0.05
2,U130A A141G,1.46
3,G82A A136G,2.28
4,A30U C37G,0.81
5,U52A A140G,1.08
6,A79G U102C,0.89
7,U26A A65U,0.14
8,U13C U134C,1.21
9,A92G C128U,0.03
10,C3A A77G,1.17
11,G70A A138G,0.21
12,A65U U143C,0.24
13,A50U A124U,1.11
14,A94U A136G,0.3
15,G25A A117U,1.25
16,A121G U143C,1.69
17,A22U U23C,0.87
18,A31U G144A,0.96
19,G11A A107G,1.65
20,U9A U12A,0.37
21,C120U U132C,1.56
22,A31G C90A,0.12
23,U96A A107U,0.08
24,U46A A117G,1.78

row,Variant,self-cleavage
1,U12G U100C,1.33
2,A69G C99G,0
3,U73G A121G,2.45
4,U29C A57U,0.33
5,U39C U104C,1.77
6,U46A U52A,1.87
7,A59G A79G,0.07
8,A65U A94G,0.1
9,U14A A42U,0.47
10,U9A U46A,1.22
11,C37U A138G,1.2
12,A42G G93A,0.01
13,U15C C90A,0.02
14,G27C U100C,1.13
15,G27U U132A,1.23
16,G33C A59G,0
17,A129G U134G,1.65
18,A79G C113A,0.14
19,C113U A124U,1.3
20,G70U U102A,0.11
21,A42G A136G,1.53
22,U102A A129G,1.72
23,A67G U108A,0.5
24,A59U U112C,1.51

row,Variant,self-cleavage
1,C18G U115C,1.67
2,A6U G75U,0.53
3,G88A G122A,0.07
4,U91C U143A,0.72
5,U73C C120A,1.97
6,U14C C76A,1.31
7,A6C A124U,1.13
8,U47G A138G,0.98
9,U5C A30G,0.74
10,G35A A43G,0.71
11,C3A U13A,0.79
12,U15C A42U,1.38
13,A92C,0.13
14,A69U A141U,0.05
15,A124G G144C,0.68
16,U14C U143G,1.93
17,C99U C101U,1
18,A50U U119C,1.47
19,A31G U62C,0.13
20,U73C U96C,0.11
21,U20C U39C,1.28
22,U109G A141U,1.08
23,G36U U62A,0.03
24,G53A U91C,0.53

row,Variant,self-cleavage
1,U20A C56U,0.18
2,U45C C63U,0.18
3,A78U G127C,2.34
4,A107U G144A,1.79
5,A65U U132C,0.2
6,U96C U112A,0.12
7,U119C G139U,1.47
8,G36A U45G,0.92
9,G8A U96A,0.08
10,G8A U96C,0.15
11,G10A U15C,1.2
12,A2C G89A,0.05
13,U73C U134G,1.7
14,U73A U134A,1.28
15,G49A U108C,1.54
16,U47A A140U,1.25
17,U134C G144A,1.18
18,A124G A129U,1.06
19,A64C A138G,0.31
20,A57G A79C,0.8
21,U1C U14C,0.93
22,U9C A117C,1.41
23,U46G A107G,1.15
24,A43C A141U,1.46

row,Variant,self-cleavage
1,A136G A140G,1.51
2,G55C,0.08
3,A78G G114A,0.83
4,U96A U108A,0.13
5,G89A U104A,0.01
6,C51A A107U,1.3
7,A43G G58A,0.05
8,A69G G83U,0.15
9,U39A U96A,0.04
10,G32U U85A,0.09
11,A78G C98G,0.11
12,A42G C145G,1.14
13,U46C U73A,1.68
14,U52C U100C,2.25
15,C111U U143C,1.13
16,G83A A140G,0.49
17,C37U U143A,1.14
18,U62C U130C,0.06
19,C3A U45G,0.45
20,A2U G122A,0.79
21,C17U A69G,0.4
22,U12C U39G,0.84
23,U13G C113A,1.43
24,U81C U109C,0.38

row,Variant,self-cleavage
1,A57U U96G,0.22
2,U13G U47A,0.86
3,A69U A77U,0.06
4,A2C U102C,1.65
5,U9A G60U,0
6,G48A U85A,0.05
7,U46G G89A,0.04
8,U104A U143A,0.88
9,U13C U108A,0.91
10,U29C U108G,1.2
11,U39A U47A,0.93
12,U26C G70A,0.14
13,A24G U143A,0.72
14,A50U A69U,0.07
15,U108C U112C,1.74
16,A129G A140C,0.74
17,G70A A141G,0.17
18,C56U U134C,0.23
19,G53A A79G,0.71
20,U26A C113U,0.86
21,A77U A121G,1.6
22,U1A G97A,0.38
23,U14A A77C,0.88
24,U12A A124G,0.87

row,Variant,self-cleavage
1,A24U U119G,2.22
2,A2G C3U,0.65
3,U13C A129G,1.52
4,A59U A142G,1.08
5,U102C G144A,1.15
6,U47C C51U,1.14
7,U108G U143C,1.14
8,G7A A22G,1.36
9,G10A U12G,0.83
10,A77U G125A,1.33
11,G60U A79G,0.05
12,A22G U100C,1.75
13,C61U A79G,0.01
14,U13A U46C,0.77
15,C18U,1.17
16,U15A A141U,1.07
17,U15A A141G,1.35
18,U46C C120A,0.85
19,G80A U87C,0.2
20,U5A G36A,1.19
21,U46C G125C,1.44
22,A50G G88A,0.06
23,A22G U62C,0.09
24,U45C U52A,1.33

row,Variant,self-cleavage
1,G34A A107G,2.74
2,G114A U143A,0.68
3,U45A U85A,0.06
4,U100G A142G,1.01
5,A6U A141G,0.94
6,U20C A69G,0.66
7,A57C A94G,0.25
8,U12C U45G,1.35
9,U20C C37U,1.33
10,G21A A77U,1.18
11,U47G A142G,1.33
12,A94G G126A,0.21
13,U39C A64U,0.35
14,C19U U46C,1
15,C16U U91C,0.74
16,A140C A141G,0.41
17,U62A A92G,0.07
18,U1C C56U,0.07
19,U73C C146A,2.24
20,A42U A65G,0.06
21,A124U U134A,1.31
22,U47A U85C,0.12
23,G106U A117U,1.26
24,A124U G127U,1.62

row,Variant,self-cleavage
1,G49U U81C,1.54
2,G4A A94U,0.27
3,G10A U112C,1.66
4,A6G A129G,0.26
5,U102A A121U,1.44
6,U12G C90U,0.08
7,U87A U134A,0.13
8,G34A A67G,0.35
9,G89U A142G,0.03
10,G97A U134C,0.07
11,C71U C76U,1.15
12,U26A A77C,0
13,U14C U102A,1.67
14,A57G G126U,0.65
15,U73A A142U,1.41
16,C63U U112C,0.29
17,G40A U81C,1.04
18,G74A A94U,0.17
19,U9C C90G,0.09
20,G49C A140G,1.51
21,G60A A78U,0.02
22,U13C U29C,1.35
23,U1A G126C,1.06
24,A50G G60A,0.04

row,Variant,self-cleavage
1,U12G U85A,0.22
2,U13C G88U,0.09
3,A138G A141U,1.43
4,G83A U100C,1.21
5,U39A A129G,1.27
6,G125U A142G,1.33
7,C56U U96A,0.03
8,U9G U13C,0.65
9,U104A A124U,1.25
10,U14C C66U,0.03
11,U73C A121C,0.54
12,U73C A121G,2.05
13,U52C A92C,0
14,U15C A43G,1.4
15,U15C A43U,1.09
16,U87A G126U,0.08
17,U20C A78U,1.86
18,G83U U102C,0
19,U52A A69G,0.71
20,U81A U87C,0.19
21,G11C A50G,0.71
22,A79G G105U,1.19
23,U29C A117U,1.51
24,C76U U96A,0.05

row,Variant,self-cleavage
1,U13A G35A,0.65
2,A92U A94G,0.05
3,U62C U87C,0.05
4,U108A U119A,0.96
5,U112A A129G,0.98
6,G127A U132C,0.78
7,U12C C120U,1.43
8,U5A U73A,2.19
9,A22G G35U,0.6
10,G60U A121G,0
11,U14C C28A,0.74
12,U20A A69C,0.06
13,U14A A121C,1.07
14,C37U U130A,0.99
15,U14A C90U,0.04
16,A50G U115C,1.42
17,A6G C113A,1.18
18,G53U U81C,2
19,A94C U109A,0.05
20,A67U G83A,0.03
21,A138G C146U,1.32
22,U91A U108C,0.73
23,A50U A64G,0.16
24,A31G U39C,1.17

row,Variant,self-cleavage
1,G32A A124U,0
2,G60U U85C,0.03
3,G114U A136U,1.23
4,G7A G89A,0.02
5,G35A U130C,0.96
6,U26C G60A,0.12
7,A42G U143C,1.3
8,U14C A67U,0
9,U9A A43U,0.61
10,U9G A138U,1.51
11,C84G A140G,0.12
12,A69G A78G,0.25
13,U91C A142G,0.73
14,U12C U46A,1.24
15,A57G A142U,0.38
16,U47A A64C,0.25
17,U45C U119C,2.12
18,G60A A140U,0.03
19,A59G A65G,0.11
20,A92G G137U,0.07
21,A69C A121U,0.04
22,U9C A64U,0.6
23,G4A A24G,0.75
24,U52C C111A,1.14

row,Variant,self-cleavage
1,U13A A30G,0.97
2,U13G U20A,0.69
3,U9A U100A,0.72
4,U12A A59C,0.61
5,A92G G114A,0.1
6,A2G U73A,0.95
7,A67G A69U,0.06
8,A107U U132A,1.88
9,A2G G106U,1.04
10,C16A A142G,0.86
11,U9C U14C,1.18
12,A22U A50U,0.39
13,U26A G35A,0.67
14,U14A U112A,1.33
15,C37U A67U,0.08
16,A42U U85C,0.13
17,U39C U45A,0.87
18,U62A A69G,0.02
19,U23C A117G,1.27
20,G72A U87C,0.25
21,A50U A65G,0.06
22,A6G G97A,0.18
23,U26C A43U,1.21
24,U108C,1.64

row,Variant,self-cleavage
1,U73C C98U,0.36
2,C61U U100A,0.01
3,U5G A107G,0.86
4,U20C A107G,1.6
5,G60U A117G,0.04
6,U108C U134C,1.57
7,G49A A138G,1.11
8,A77U U143C,1.04
9,U119A A121G,1.27
10,G55C A65G,0.06
11,A69C C131A,0.09
12,U9C A124G,1.15
13,A6G U87C,0.15
14,A57G C120A,0.93
15,U87A G127A,0.04
16,C3G A57U,0
17,U47A U115C,1.39
18,U109G U112C,0.19
19,U45G U102A,1.73
20,A77U U132C,1.41
21,A92U A107U,0.89
22,U134A G135U,1.21

# Source: the RNAGym collection of RNA variant scans (doi:10.7554/elife.90254)
